From the supplement of paper PMC10724198
± gives the standard deviation of the averaged measurements.

These sequences were tested on Saccharomyces cerevisiae (assay: protein stability index of tFT-peptide fusion (C-terminal peptide) (PSI (0-1 scale)); higher = more stable (slower turnover)). Conditions: genetic background: wild type; temperature: 30 C.
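Also: PSI is a weighted mean of sequencing reads over stability bins, variants kept only with over 10 reads, mCherry proximal and sfGFP distal, peptide attached via GGGS linker.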

Sequence	protein stability index
IFWLFLPSVPFL	0.702 ± 0.12
IGARLMVGASRK	0.775 ± 0.16
IGFGPVSCARLF	0.679 ± 0.11
IGGLSLGESIGG	0.689 ± 0.02
IGLTVICHFMNV	0.576 ± 0.05
IGNKLSKMIDTS	0.665 ± 0.053
IGQCYLRHRGMS	0.5544 ± 0.0053
IGRRSRALKITE	0.629 ± 0.03
IGSRRMDADERV	0.691 ± 0.026
IGVSDSGMWMGN	0.694 ± 0.026
IICSKLHSPLVV	0.509 ± 0.031
IIVGFFGLLLGL	0.5413 ± 0.0048
IIVWVGAGLWGV	0.594 ± 0.011
IKCCIGCSSICG	0.692 ± 0.042
IKFVRLEGLCPL	0.624 ± 0.019
IKGVEKDKKTQK	0.747 ± 0.045
IKKDSRQRKRDE	0.648 ± 0.0084
IKKKKKKENKRR	0.741 ± 0.014
IKLCRSTVVTGV	0.592 ± 0.013
IKNKDLISVIII	0.646 ± 0.042
IKRKQRKRKSEK	0.86 ± 0.14
IKSKKKKKRNKR	0.638 ± 0.032
IKSQRGIHLELR	0.634 ± 0.028

Sequence	protein stability index
ILCQLRKFKFQN	0.58 ± 0.013
ILEGGGVLAWFG	0.7253 ± 0.0017
ILFIKQKYLIKK	0.6878 ± 0.003
ILGGVSPSAFVI	0.664 ± 0.022
ILGIESLVAGLL	0.697 ± 0.062
ILGQLHKHFKTS	0.546 ± 0.046
ILHGRSGLRELL	0.688 ± 0.023
ILNKYYEQSMRT	0.68 ± 0.011
ILPPPPPPPPPF	0.714 ± 0.039
ILRSVIFMDACV	0.629 ± 0.018
ILSMSQPHPILS	0.6175 ± 0.0042
ILTDFELLPVYR	0.731 ± 0.063
ILVGKIEGIVQE	0.662 ± 0.025
INCDIIHRRKKG	0.6462 ± 0.0042
INGYRYHTVNIK	0.688 ± 0.03
INNTKQSENRKS	0.701 ± 0.054
INRLKPGRGQKT	0.658 ± 0.03
IPDATGYGWVRH	0.691 ± 0.018
IPDSSPIVPHPK	0.6722 ± 0.0065
IPEEHKLTWIIP	0.74 ± 0.067
IPFFHVVPRPPP	0.628 ± 0.024
IPIPLLPASSPP	0.6877 ± 0.0063
IPKDLSRLELYR	0.62 ± 0.071

Sequence	protein stability index
IPPFRLLCRLRL	0.642 ± 0.022
IPPNPPPPNTIA	0.557 ± 0.0097
IPPPVLPSPPSP	0.672 ± 0.1
IPRCSPAGVSSY	0.696 ± 0.064
IPTVSLLHLPPV	0.699 ± 0.047
IQKNSGHPMKEA	0.711 ± 0.023
IQLEFEDMERGK	0.704 ± 0.11
IQNTERIKIQTK	0.6791 ± 0.0034
IRCGQFSVVSES	0.6 ± 0.028
IRHTQVSHIIYA	0.488 ± 0.029
IRKNWQRIGETA	0.662 ± 0.026
IRLFAPVVFLPL	0.644 ± 0.054
IRQTIEGRRLVM	0.662 ± 0.026
IRRTSENEEETW	0.673 ± 0.043
IRSLKTSPLMRG	0.704 ± 0.043
IRVATIQSTMYI	0.643 ± 0.016
IRWKEIIDKWSY	0.844 ± 0.038
ISCVLSTVGVGH	0.663 ± 0.044
ISHAGSVPDRSV	0.701 ± 0.04
ISIAATPHVSQP	0.661 ± 0.054
ISLTFNSNSKPM	0.687 ± 0.053
ISLTHAPKTGFY	0.695 ± 0.008
ISMASRAGILRG	0.686 ± 0.049

Sequence	protein stability index
ISMSDFRLFAIW	0.6646 ± 0.0047
ISNPAVHNPAGG	0.641 ± 0.017
ISRLLVLCRDLT	0.65 ± 0.033
ISVSRLRMKDRN	0.713 ± 0.22
ISWLLSFLGVVF	0.601 ± 0.046
ITDCAFIPLTVD	0.764 ± 0.095
ITGGEKNKEESG	0.698 ± 0.019
ITIVIKQNVDKE	0.564 ± 0.016
ITPLVQRPSSLR	0.689 ± 0.088
ITRSEEAKWLCA	0.685 ± 0.045
ITSALRYLSAVG	0.656 ± 0.022
ITSITRFKVDSR	0.628 ± 0.022
ITTLRSLWVVGL	0.609 ± 0.085
IVCGMGDKGMHE	0.698 ± 0.014
IVGKMRRQKTKI	0.685 ± 0.057
IVNDEHVHTYTR	0.743 ± 0.013
IVNNVKYKNRNR	0.715 ± 0.071
IVWCAINYLFRS	0.63 ± 0.054
IWCSCWPGNWET	0.823 ± 0.12
IWGLDGKSISID	0.751 ± 0.061
IWGSILGVEANV	0.685 ± 0.039
IWLHFKGSRSLP	0.703 ± 0.16
IYPPALLSSSFL	0.709 ± 0.093

Sequence	protein stability index
IYSGIYCVGAKH	0.666 ± 0.03
KADVSIRYGINN	0.714 ± 0.074
KARIADRKMWGN	0.684 ± 0.017
KASSGRASGSMA	0.673 ± 0.09
KAWGGEGRDAWG	0.702 ± 0.069
KCCRRPPPAFRS	0.725 ± 0.034
KCLDSARSSVLP	0.651 ± 0.043
KCPSLVHSNSTG	0.71 ± 0.016
KCSLVLTVARSY	0.609 ± 0.014
KCVQESIIKMMI	0.763 ± 0.15
KDCHPVSRYVRC	0.707 ± 0.01
KDFGYKKKNRRY	0.734 ± 0.032
KDGGRGGLNWCV	0.745 ± 0.095
KDNMQFLHLYAS	0.707 ± 0.075
KDRVGYKEIITG	0.695 ± 0.028
KEERGINNKKGK	0.691 ± 0.071
KEGARGGEASRR	0.669 ± 0.031
KEKKENKRKNTT	0.699 ± 0.051
KEKKLKIIQKGT	0.578 ± 0.09
KEKKQARVKKKK	0.723 ± 0.022
KEKRFTQKLIRA	0.654 ± 0.095
KENEKQRKSHKK	0.687 ± 0.043
KENIRPSESYKC	0.668 ± 0.05

Sequence	protein stability index
KEQESKAISYPV	0.718 ± 0.035
KEQGEGKEKTDK	0.682 ± 0.063
KESLKDRTKINI	0.692 ± 0.033
KEWKSESTVLEV	0.7468 ± 0.0054
KFASNNMFTRYV	0.745 ± 0.012
KFMKEITIDGLT	0.709 ± 0.055
KFSFVVAVHAGL	0.545 ± 0.024
KFYIIKRLSGVE	0.64 ± 0.029
KGEGRNRRGVPR	0.675 ± 0.019
KGLKRNENGTMS	0.638 ± 0.017
KGQKIIKNKNPK	0.644 ± 0.038
KGRRQPSSESVM	0.711 ± 0.014
KGSLVLGSKCCR	0.681 ± 0.047
KGVGGSTSRGGE	0.666 ± 0.047
KHKKKRTRDHEE	0.666 ± 0.012
KHNRISEKHQKS	0.643 ± 0.0095
KHRSIRPYLKND	0.72 ± 0.037
KHSMGSFNNILN	0.6674 ± 0.0032
KIDKNHGILPNY	0.679 ± 0.035
KIEAHKKYKKHQ	0.726 ± 0.026
KINAKIYGSEKG	0.654 ± 0.015
KIRKYTKGQIMQ	0.687 ± 0.007
KITEKLGSPKTF	0.654 ± 0.086

Sequence	protein stability index
KKEKGKKEKEKR	0.668 ± 0.056
KKEKKIRKKTVT	0.732 ± 0.028
KKEQIKINIKGK	0.693 ± 0.03
KKGACTQILQSL	0.789 ± 0.19
KKGKGKTETIKT	0.695 ± 0.03
KKGRRERRITNE	0.695 ± 0.013
KKHNGHNHQNNF	0.684 ± 0.019
KKIDQAKETSLS	0.68 ± 0.011
KKIEKENKKEKF	0.611 ± 0.056
KKIRKGIGNKHI	0.651 ± 0.017
KKKEKDKKTNKP	0.684 ± 0.057
KKKEKKKKNKLK	0.74 ± 0.019
KKKEKKNIHSKT	0.646 ± 0.029
KKKFNNFIKIIH	0.631 ± 0.027
KKKGDAKNKKKQ	0.714 ± 0.067
KKKHKKKKKKKE	0.676 ± 0.073
KKKKEIKKKKKT	0.697 ± 0.06
KKKKHKAKGKIG	0.695 ± 0.049
KKKKKKDQKNKK	0.734 ± 0.057
KKKKKKKGIILD	0.737 ± 0.097
KKKKKKKKKPEK	0.708 ± 0.022
KKKKKKKKRARY	0.657 ± 0.0063
